Assay results as given in publication PMC9482650, “Quantitative fragmentomics allow affinity mapping of interactomes” (Nature Communications, 2022).
Where a chain is given by its changes, count along the chain named.

Key:
Assay in all cases: holdup assay
Parameters in all cases: key: below the threshold = too weak to quantify, mostly under pKd 3.1 to 4
Conditions in all cases: plain residues with an end cap or a label only (N-terminal biotin on a linker: ttds)
[1] = molecular target: T1, APBA1_2, Q02410
T1 sequence (Q02410 742-832, limits assumed, looked up): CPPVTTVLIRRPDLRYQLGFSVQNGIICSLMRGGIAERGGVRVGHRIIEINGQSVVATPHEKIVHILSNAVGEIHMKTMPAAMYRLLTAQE

[2] = molecular target: T2, APBA2_2, Q99767
T2 sequence (Q99767 654-744, limits assumed, looked up): T1 sequence (Q02410 742-832, limits assumed, looked up) with R10K, R15K, P59A, H65Q, I66A, A70S, Y84F, A89G

[3] = molecular target: T3, ARHGEF11, O15085
T3 sequence (O15085 42-136, limits assumed, looked up): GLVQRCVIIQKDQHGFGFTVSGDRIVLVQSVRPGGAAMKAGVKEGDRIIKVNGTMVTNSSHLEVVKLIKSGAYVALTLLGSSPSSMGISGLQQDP

[4] = molecular target: DLG4_1, P78352
Sequence of DLG4_1, P78352 (P78352 62-152): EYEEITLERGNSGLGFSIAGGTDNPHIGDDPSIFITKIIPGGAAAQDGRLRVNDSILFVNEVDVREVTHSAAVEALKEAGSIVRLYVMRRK

[5] = molecular target: DLG4_2, P78352
Sequence of DLG4_2, P78352 (P78352 155-259): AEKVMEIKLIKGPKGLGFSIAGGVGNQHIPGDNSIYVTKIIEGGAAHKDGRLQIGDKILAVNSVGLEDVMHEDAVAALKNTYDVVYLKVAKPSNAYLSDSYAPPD

[6] = molecular target: GIPC2, Q8TF65
Sequence of GIPC2, Q8TF65 (Q8TF65 112-203): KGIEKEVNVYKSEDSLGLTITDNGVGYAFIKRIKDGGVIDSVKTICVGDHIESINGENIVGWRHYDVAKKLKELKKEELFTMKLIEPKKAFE

[7] = molecular target: T4, GRIP1_2, Q9Y3R0
T4 sequence (Q9Y3R0 145-248, limits assumed, looked up): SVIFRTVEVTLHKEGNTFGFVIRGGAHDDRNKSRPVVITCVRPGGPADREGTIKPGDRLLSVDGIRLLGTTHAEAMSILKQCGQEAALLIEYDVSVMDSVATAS

[8] = molecular target: GRIP2_4, Q9C0E4
Sequence of GRIP2_4, Q9C0E4 (Q9C0E4 446-548): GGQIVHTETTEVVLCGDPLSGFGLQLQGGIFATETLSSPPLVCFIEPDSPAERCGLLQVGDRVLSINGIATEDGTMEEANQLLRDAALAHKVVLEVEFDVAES

[9] = molecular target: IL16_4, Q14005
Sequence of IL16_4, Q14005 (Q14005 1229-1329): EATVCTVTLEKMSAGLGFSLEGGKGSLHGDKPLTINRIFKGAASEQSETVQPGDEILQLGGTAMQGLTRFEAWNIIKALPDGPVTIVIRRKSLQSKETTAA

[10] = molecular target: Inadl_2, Q8NI35
Sequence of Inadl_2, Q8NI35 (Q8NI35 238-335): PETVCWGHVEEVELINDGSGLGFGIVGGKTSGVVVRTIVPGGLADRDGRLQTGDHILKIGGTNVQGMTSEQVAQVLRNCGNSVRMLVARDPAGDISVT

[11] = molecular target: Inadl_4, Q8NI35
Sequence of Inadl_4, Q8NI35 (Q8NI35 547-651): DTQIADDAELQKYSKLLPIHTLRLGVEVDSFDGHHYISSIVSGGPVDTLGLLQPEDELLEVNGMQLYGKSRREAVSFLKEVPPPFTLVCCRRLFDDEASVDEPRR

[12] = molecular target: Inadl_8, Q8NI35
Sequence of Inadl_8, Q8NI35 (Q8NI35 1425-1530): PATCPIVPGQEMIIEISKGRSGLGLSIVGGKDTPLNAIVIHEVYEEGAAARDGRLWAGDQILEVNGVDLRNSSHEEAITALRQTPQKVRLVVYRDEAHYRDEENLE

[13] = molecular target: T5, LIN7A, O14910
T5 sequence (O14910 103-200, limits assumed, looked up): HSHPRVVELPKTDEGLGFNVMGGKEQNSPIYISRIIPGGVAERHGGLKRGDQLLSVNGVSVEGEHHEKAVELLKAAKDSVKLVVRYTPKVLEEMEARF

[14] = molecular target: T6, LNX2_2, Q8N448
T6 sequence (Q8N448 334-432, limits assumed, looked up): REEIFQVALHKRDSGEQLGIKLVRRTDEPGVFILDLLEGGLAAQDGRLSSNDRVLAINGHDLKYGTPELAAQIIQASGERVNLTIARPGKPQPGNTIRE

[15] = molecular target: MAGI1_1, Q96QZ7
Sequence of MAGI1_1, Q96QZ7 (Q96QZ7 1-106): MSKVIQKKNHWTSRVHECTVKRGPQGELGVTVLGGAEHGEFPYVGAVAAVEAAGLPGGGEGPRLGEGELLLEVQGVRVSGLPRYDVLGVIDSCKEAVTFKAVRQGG

[16] = molecular target: T7, MPP7, Q5T2T1
T7 sequence (Q5T2T1 134-230, limits assumed, looked up): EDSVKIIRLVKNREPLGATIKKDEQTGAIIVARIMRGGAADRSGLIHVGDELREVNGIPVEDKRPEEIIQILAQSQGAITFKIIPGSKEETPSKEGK

[17] = molecular target: T8, NHERF3_3, Q5T2W1
T8 sequence (Q5T2W1 238-333, limits assumed, looked up): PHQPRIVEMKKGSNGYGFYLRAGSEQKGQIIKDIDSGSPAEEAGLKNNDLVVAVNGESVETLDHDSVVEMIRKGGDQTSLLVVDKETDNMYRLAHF

[18] = molecular target: NOS1, P29475
Sequence of NOS1, P29475 (P29475 9-101): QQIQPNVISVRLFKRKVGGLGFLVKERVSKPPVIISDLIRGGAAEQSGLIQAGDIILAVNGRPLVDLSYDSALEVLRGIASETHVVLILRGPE

[19] = molecular target: PARD3_3, Q8TEW0
Sequence of PARD3_3, Q8TEW0 (Q8TEW0 582-685): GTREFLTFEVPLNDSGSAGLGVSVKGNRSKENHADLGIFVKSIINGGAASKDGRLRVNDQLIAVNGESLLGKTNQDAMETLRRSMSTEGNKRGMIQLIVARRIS

[20] = molecular target: PDZRN4_1, Q6ZMN7
Sequence of PDZRN4_1, Q6ZMN7 (Q6ZMN7 213-318): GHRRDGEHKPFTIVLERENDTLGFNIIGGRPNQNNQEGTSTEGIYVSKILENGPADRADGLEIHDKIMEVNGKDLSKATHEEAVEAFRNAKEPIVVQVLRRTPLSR

[21] = molecular target: PICK1, Q9NRD5
Sequence of PICK1, Q9NRD5 (Q9NRD5 17-115): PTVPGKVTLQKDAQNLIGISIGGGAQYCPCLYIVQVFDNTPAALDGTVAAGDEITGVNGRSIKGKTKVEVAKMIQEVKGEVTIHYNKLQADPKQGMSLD

[22] = molecular target: T9, PTPN13_1, Q12923
T9 sequence (Q12923 1088-1188, limits assumed, looked up): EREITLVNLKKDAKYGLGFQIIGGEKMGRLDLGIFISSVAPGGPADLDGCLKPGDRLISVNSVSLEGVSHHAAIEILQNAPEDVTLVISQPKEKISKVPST

[23] = molecular target: T10, SNTA1, Q13424
T10 sequence (Q13424 82-180, limits assumed, looked up): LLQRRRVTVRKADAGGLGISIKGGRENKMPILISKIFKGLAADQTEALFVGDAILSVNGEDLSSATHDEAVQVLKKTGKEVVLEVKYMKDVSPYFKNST

[24] = molecular target: T11, SNTG1, Q9NSN8
T11 sequence (Q9NSN8 52-150, limits assumed, looked up): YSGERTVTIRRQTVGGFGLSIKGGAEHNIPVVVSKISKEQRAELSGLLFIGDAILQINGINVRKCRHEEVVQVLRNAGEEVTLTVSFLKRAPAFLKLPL

[25] = molecular target: SNX27, Q96L92
[26] = molecular target: T12, SYNJ2BP, P57105
T12 sequence (P57105 8-110, limits assumed, looked up): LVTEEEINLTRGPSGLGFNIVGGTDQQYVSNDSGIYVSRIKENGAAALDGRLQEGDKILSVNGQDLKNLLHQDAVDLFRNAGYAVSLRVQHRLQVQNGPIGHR

Binder | pKd [1] | pKd [2] | pKd [3] | pKd [4] | pKd [5] | pKd [6] | pKd [7] | pKd [8] | pKd [9] | pKd [10] | pKd [11] | pKd [12] | pKd [13] | pKd [14] | pKd [15] | pKd [16] | pKd [17] | pKd [18] | pKd [19] | pKd [20] | further results
MERLRVETDV [ARHGEF16, Q5VV41] | 3.86 | below the threshold | 4.21 | 5.13 | 5.44 | 3.75 | below the threshold | below the threshold | below the threshold | below the threshold | below the threshold | 3.53 | below the threshold | 3.93 | below the threshold | 3.54 | below the threshold | below the threshold | below the threshold | 3.83 | pKd [21]: below the threshold; pKd [22]: below the threshold; pKd [23]: 4.62; pKd [24]: 4.89; pKd [25]: 4.17; pKd [26]: 4.8
IQREDQETAV [DGKZ, Q13574] | 4.2 | below the threshold | 4.47 | 4.72 | 4.96 | 3.67 | below the threshold | below the threshold | below the threshold | below the threshold | below the threshold | below the threshold | below the threshold | below the threshold | below the threshold | below the threshold | below the threshold | 4.34 | below the threshold | 4.81 | pKd [21]: below the threshold; pKd [22]: below the threshold; pKd [23]: 5.37; pKd [24]: 5.4; pKd [25]: 6; pKd [26]: 5.31
SEKHFRETEV [HTLV1-TAX1, P03409] | 3.56 | below the threshold | 4.22 | 5.22 | 5.51 | 3.82 | below the threshold | below the threshold | below the threshold | below the threshold | below the threshold | 3.86 | 3.82 | 4.15 | below the threshold | below the threshold | below the threshold | 4.09 | 3.71 | 4.9 | pKd [21]: below the threshold; pKd [22]: below the threshold; pKd [23]: 5.9; pKd [24]: 5.43; pKd [25]: 5.72; pKd [26]: 6.04
